The results in this text go back to patent US7189694B2, “Inhibitors of autophosphorylation protein kinases” (University of Florida Research Foundation, Inc., priority 2003, dated 2007).

Test [1] addresses T1, JAK2 WT peptide (JAK2 autophosphorylation site 1001LPQDKEYYKVKEP) (Homo sapiens, UniProt O60674).
T1 construct: made in house; host or cells: chemical synthesis (Fmoc)
The test can be described thus: ELISA binding of biotinylated JAK2 WT peptide to solid-phase peptides. The settings on record: FIG. 1A; ELISA, peptides coated on 96-well plates. The protocol: Binding assays: For ELISA binding assays Tkip and other peptides to be tested were bound to 96-well plates in 0.1 M carbonate binding buffer (pH 9.6) at a final concentration of 3 μg/well (50 μl). Wells were then washed three times with wash buffer containing 0.9% NaCl and 0.05% tween-20 in PBS and blocked with 2% gelatin and 0.05% tween-20 in PBS for 1 h at room temperature. Wells were then washed three times with wash buffer and incubated with various concentrations of biotinylated JAK2 WT peptide and biotinylated P-JAK2 WT peptide for 1 h at room temperature in blocking buffer. Following incubation, wells were washed five times with wash buffer to remove any unbound biotinylated peptides. Bound biotinylated peptides were detected by incubation with a 1:500 dilution of NEUTRAVIDIN biotin binding-protein conjugated with horseradish peroxidase (Molecular Probes, Eugene, Oreg.) in blocking buffer for 1 h at room temperature. Wells were then washed five times with wash buffer and developed with a solution of o-phenylenediamine (OPD) in stable peroxidase buffer (Pierce, Rockford, Ill.). The assay was stopped with the addition of 2 M H2SO4 (50 μl) to each well. Absorbance was measured using a 450 microplate reader (Bio-rad, Hercules, Calif.) at 490 nm. Control experiments were carried out as described above in the absence of immobilized peptides.
For orientation: ELISA stands for enzyme-linked immunosorbent assay.

Test [2] addresses T2, recombinant human JAK2 (Homo sapiens, UniProt O60674).
T2 construct: purchased Upstate Biotechnology, Lake Placid, N.Y
The test can be described thus: In vitro JAK2 kinase assay (32P, SDS-PAGE, autoradiography). The format is biochemical. Particulars: peptide at 50 μM. How it is done:
Determination of JAK2 autophosphorylation activity was performed in reaction mixtures containing recombinant human JAK2 immobilized on agarose beads (Upstate Biotechnology, Lake Placid, N.Y.), 1 μCi/μl of [^32P]γ-ATP (Amersham Biosciences, Piscataway, N.J.), and either Tkip or JAK 2 WT peptide incubated in kinase buffer (10 mM HEPES [pH 7.4], 50 mM sodium chloride, 0.1 mM sodium orthovanadate, 5 mM magnesium chloride, 5 mM manganese chloride). JAK2 kinase assays were performed in 35 μL reaction volumes containing 10.5 μL Tkip, 20 μL JAK2 agarose beads, 1 μL sIFNGR-1, and 3.5 μL [^32P]γ-ATP incubated at 30° C. for 30 min with intermittent agitation. […] EGFR, VEGFR, and JAK2 kinase reactions were terminated with the addition of 5 μl 6×SDS sample buffer (0.5 M Tris-HCl [pH 6.8], 36% glycerol, 10% SDS, 9.3% DTT, 0.012% bromophenol blue). Incubation of JAK2 agarose beads in SDS sample buffer (100° C.) was designed to elute bound proteins from the agarose beads. The reaction mixtures were separated on a 10% SDS polyacrilamide gel. Autoradiography was used to determine phosphorylation activity.

Test [3] deals with biotinylated JAK2 WT peptide binding to Tkip peptide. The test is described as follows: ELISA peptide competition for biotinylated JAK2 WT binding to Tkip. On the set-up: species or system human. Particulars: FIG. 1B; unlabeled competitor peptide. How it is done:
Peptide competition experiments were conducted using peptides derived from the JAK tyrosine kinase family, vascular endothelial growth factor receptor (VEGFR), and cyclin dependent kinase (CDK) to compete with biotinylated JAK2 WT peptide for binding to Tkip. Binding of biotinylated JAK2 WT was determined as above, except that following Tkip peptide immobilization, washing, and blocking in blocking buffer for 1 hr at room temperature unlabeled competitors were added to wells and incubated for 30 min at varying concentrations before biotinylated JAK2 WT peptide was incubated for 1 hr in each well to determine the extent of competition with unlabeled peptides. Detection and analysis of binding was carried out as described above.

The test system of test [4] is MHC class I expression on WISH cells. The test can be described thus: Flow cytometry of IFN-γ induced MHC class I expression on WISH cells. The format is cell-based, human. How it is done: Flow Cytometry: WISH fibroblast cells (2×10^6) were incubated for 48 h with media alone, 25 μM MuIFNγ(95–125) peptide, or lipophilic Tkip (LT) at varying concentrations (1 μM, 10 μM, 25 μM) in the presence or absence of 5000 units/ml IFN-γ in 6-well culture plates at 37° C. in a 5% CO2 atmosphere. Following incubation, cells were washed twice with PBS and harvested by trypsinization into two sets of 5-ml round bottom polystyrene tubes (Fisher, Pittsburgh, Pa.) and washed twice with PBS. For cell surface staining a direct immunofluorescence protocol was employed. […] The fluorescent-conjugated isotype antibody was used to determine background fluorescence by identifying nonspecific binding of the monoclonal antibody to WISH cells. […] WISH fibroblast cells were finally resuspended in 500 μl of PBS and analyzed on a FACScan fluorescence-activated cell sorter (Becton Dickinson, San Jose, Calif.). […] The red fluorescence of R-PE was excited at 488 nm. […] The fluorescence intensity of the negative controls were subtracted from the mean fluorescence for the R-PE labeled cells. […] Flow cytometry data were analyzed using CellQuest analysis software (Becton Dickinson, San Jose, Calif.).

Ends that are not written are not given here.

T2 sequence (O60674 whole entry): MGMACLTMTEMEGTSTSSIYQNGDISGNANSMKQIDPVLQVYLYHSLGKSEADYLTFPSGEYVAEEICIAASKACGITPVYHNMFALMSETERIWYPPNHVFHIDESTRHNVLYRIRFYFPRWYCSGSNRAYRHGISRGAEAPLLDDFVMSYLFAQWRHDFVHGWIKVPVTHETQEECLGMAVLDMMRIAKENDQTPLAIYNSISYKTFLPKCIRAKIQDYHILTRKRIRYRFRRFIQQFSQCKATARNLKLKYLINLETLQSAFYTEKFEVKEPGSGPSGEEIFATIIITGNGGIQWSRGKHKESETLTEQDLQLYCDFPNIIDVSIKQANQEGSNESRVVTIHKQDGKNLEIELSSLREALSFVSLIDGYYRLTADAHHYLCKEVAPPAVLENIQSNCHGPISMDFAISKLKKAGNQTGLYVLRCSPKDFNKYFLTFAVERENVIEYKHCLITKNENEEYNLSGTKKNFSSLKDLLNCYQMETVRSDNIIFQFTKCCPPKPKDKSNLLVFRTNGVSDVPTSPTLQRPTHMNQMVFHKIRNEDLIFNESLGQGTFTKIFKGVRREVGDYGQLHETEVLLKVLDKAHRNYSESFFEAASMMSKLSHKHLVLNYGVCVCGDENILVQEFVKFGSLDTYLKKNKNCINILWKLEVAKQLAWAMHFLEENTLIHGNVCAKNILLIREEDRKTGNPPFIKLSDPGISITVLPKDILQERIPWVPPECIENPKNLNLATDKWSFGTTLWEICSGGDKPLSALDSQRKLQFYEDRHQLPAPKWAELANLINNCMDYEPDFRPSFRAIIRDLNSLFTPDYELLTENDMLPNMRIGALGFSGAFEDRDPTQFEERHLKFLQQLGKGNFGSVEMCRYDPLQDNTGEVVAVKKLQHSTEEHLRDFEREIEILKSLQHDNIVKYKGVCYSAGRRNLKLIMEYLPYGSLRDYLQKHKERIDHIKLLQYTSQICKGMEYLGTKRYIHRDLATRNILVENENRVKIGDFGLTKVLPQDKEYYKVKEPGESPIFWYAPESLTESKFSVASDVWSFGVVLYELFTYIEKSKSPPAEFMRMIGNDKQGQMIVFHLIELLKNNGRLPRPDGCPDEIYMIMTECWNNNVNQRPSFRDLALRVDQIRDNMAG

Regarding “AKFEVNNPQVQRQAFNELIRVVHQLLPESSL (amino acid sequence of a peptide used for control purposes) [IFN-γ95–125]”, in test [1], the “binding of biotinylated JAK2 WT peptide to solid-phase peptide” value (“binding of biotinylated JAK2 WT peptide” for short) is on record as “negligible”. In the case of “EMLVLLMALKLLA (amino acid sequence of a peptide that can be used according to the present invention)”, the “inhibition of JAK2 autophosphorylation” value in test [2] is recorded as “inhibited autophosphorylation of JAK2 (lane 7 of FIG. 4, upper panel), although it was not as effective as the Tkip peptide”. With “KTEGVPSTAIREISLLKELNH (amino acid sequence of a peptide used for control purposes) [CDK 41–61, cyclin-dependent kinase, cyclin box peptide 41–61]”, the “inhibition of biotinylated JAK2 WT peptide binding to Tkip peptide” value (from here on “inhibition … to Tkip peptide”) in test [3] is “neither CDK 41–61 nor VEGFR 1208–1222, inhibited”. Also, the “binding of biotinylated JAK2 WT peptide” value in test [1] is given as “negligible”. In the case of “LPQDKEYYKVKEP (amino acid sequence of a peptide used for control purposes) [JAK2 WT, JAK2 autophosphorylation site peptide, residues 1001-1013; control peptide, reference compound]”, in test [2], the “inhibition of JAK2 autophosphorylation” value is “had no effect” and the “inhibition of JAK2 phosphorylation of IFNGR-1” value is “had no effect”. Also, the “inhibition … to Tkip peptide” value in test [3] is recorded as “inhibited”. Take “NGVLFLMIFHFLG (amino acid sequence of a peptide that can be used according to the present invention)”: in test [2], the “inhibition of JAK2 phosphorylation of IFNGR-1” value is given as “did inhibit”. “SSDVRYVNAFKFM (amino acid sequence of a peptide used for control purposes) [VEGFR 1208–1222, vascular endothelial growth factor receptor autophosphorylation peptide]”: in test [3], the “inhibition … to Tkip peptide” value is on record as “neither CDK 41–61 nor VEGFR 1208–1222, inhibited”. Moreover, the “binding of biotinylated JAK2 WT peptide” value in test [1] is reported as “negligible”. Consider “control lipophilic peptide (IFN-γ 95–125): lipophilic irrelevant peptide MuIFN-γ(95–125) (AKFEVNNPQVQRQAFNELIRVVHQLLPESSL; also: lipophilic group, site not given here; UniProt P01580 117-147, looked up, fragment) [reference compound]”, for which, in test [4] (10 μM or 25 μM Tkip (control 25 μM), 5000 U/ml human IFN-γ, 48 h), the “effect on IFN-γ upregulation of MHC class I expression” value is recorded as “had no effect”. Turning to “human IFN-γ: human gamma interferon cytokine used as stimulus”, the “increase in MHC class I as per FACS analysis” value in test [4] (5000 U/ml) is given as “over 3 fold”.
